Biological target: SARS-CoV-2 (WA-1) Spike receptor binding domain (RBD)-mouse Fc fusion protein (SARS-CoV-2, UniProt P0DTC2)
Assay: flow cytometry on cells

B1: FG-10A3 (Family G clone 10A3) human anti-SARS-CoV-2 Spike RBD neutralizing monoclonal antibody (antibody, V domains shown)
VH: QVQLVESGGGVVQPGRSLRLSCAASGFTFSSYGMNWVRQAPGKGLEWVAIIWYDGNNTYYVDSVKGRFTISRDNSKNTLYLQMNSLRAEDTAVYYCARKDGSKTYYGYYFDYWGQGTLVTVSS
VL: DIQMTQSPSSLSASVGDRVTITCRASQSIHSFLNWYQQKPGKPPNLLIYAASSLQSGLPSRFSGSGSGTDFTLTISSLQPEDFATYYCQQSYITPPTFGHGTKVEIK
B1: binds.
